Results from patent US20190175754A1 (UNIVERSITY OF CINCINNATI, published 2019).

Legend:
[1] = molecular target: FLT3 on the surface of MONOMAC-6 cells (FLT3-overexpressing AML cell line) (human) (UniProt P36888); assay: flow cytometry of Cy5.5+ MONOMAC-6 cells, 50 nM Cy5.5-conjugated nanoparticles, 1 h; negative control conjugate (background uptake)
[2] = molecular target: T1, FLT3 on the surface of MONOMAC-6 cells (FLT3-overexpressing AML cell line) (human, UniProt P36888 27-993); assay: flow cytometry uptake by FLT3-overexpressing AML cells, against control protein conjugated nanoparticles
T1 construct: whole, on cells; Endogenous receptor on a cell line; also called FMS-like tyrosine kinase 3; FLT3 receptor
T1 sequence (looked up): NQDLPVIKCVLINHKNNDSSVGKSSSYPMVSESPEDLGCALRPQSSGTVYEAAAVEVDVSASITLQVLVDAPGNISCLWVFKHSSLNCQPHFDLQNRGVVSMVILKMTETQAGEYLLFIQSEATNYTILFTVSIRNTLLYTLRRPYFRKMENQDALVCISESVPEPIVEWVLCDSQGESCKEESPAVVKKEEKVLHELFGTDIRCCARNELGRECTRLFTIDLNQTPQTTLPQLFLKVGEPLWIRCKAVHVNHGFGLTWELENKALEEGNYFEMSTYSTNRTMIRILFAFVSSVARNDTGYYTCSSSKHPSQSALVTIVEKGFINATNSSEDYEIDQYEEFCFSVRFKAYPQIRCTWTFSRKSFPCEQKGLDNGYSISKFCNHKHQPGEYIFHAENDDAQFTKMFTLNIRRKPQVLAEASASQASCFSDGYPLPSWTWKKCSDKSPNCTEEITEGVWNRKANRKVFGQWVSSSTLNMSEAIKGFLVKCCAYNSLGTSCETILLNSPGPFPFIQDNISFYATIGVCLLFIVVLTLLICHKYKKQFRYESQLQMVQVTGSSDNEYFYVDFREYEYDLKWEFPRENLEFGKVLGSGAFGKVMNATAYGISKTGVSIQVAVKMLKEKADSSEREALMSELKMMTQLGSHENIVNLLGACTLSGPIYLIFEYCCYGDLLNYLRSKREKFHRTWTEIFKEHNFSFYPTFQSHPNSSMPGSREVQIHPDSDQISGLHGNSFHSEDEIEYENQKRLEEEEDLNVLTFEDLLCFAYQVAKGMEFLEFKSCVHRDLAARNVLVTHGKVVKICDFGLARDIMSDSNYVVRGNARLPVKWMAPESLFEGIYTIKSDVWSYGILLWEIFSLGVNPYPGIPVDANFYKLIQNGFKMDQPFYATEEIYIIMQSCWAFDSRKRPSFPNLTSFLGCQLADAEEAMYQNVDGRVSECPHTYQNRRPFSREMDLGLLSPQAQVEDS
Description: FIG. 2(B) MONOMAC-6 cells were treated with Cy5.5-conjugated G7-FLT3L or G7-H2B nanoparticles for 24 hrs at the indicated doses. The proportion of Cy5.5⁺ cells were detected through flow cytometry analysis. FIG. 2(C) MONOMAC-6 and U937 cells were treated with 50 nM Cy5.5-conjugated G7-FLT3L or G7-H2B nanoparticles for 1 hr. The proportion of Cy5.5⁺ cells were detected through flow cytometry analysis. FIG. 2(D) MONOMAC-6 cells transfected with MSCV-PIG-miR-150 (miR-150-PIG) or MSCV-PIG (PIG) were treated with 50 nM Cy5.5-conjugated G7-FLT3L or G7-H2B nanoparticles for 1 hr. The proportion of Cy5.5⁺ cells were detected through flow cytometry analysis. Each experiment was repeated independently for at least three times. Average levels of at least three replicates are shown. FIG. 2(E) Cell viability (left panel) and apoptosis (right panel) of MONOMAC-6 cells treated with PBS (Ctrl), 50 nM G7-FLT3L or G7-H2B nanoparticles for 48 hr. *, P<0.05; **, P<0.01. […]

[3] = molecular target: T1, FLT3 on the surface of MONOMAC-6 cells …; assay: flow cytometry of Cy5.5+ MONOMAC-6 cells, 50 nM Cy5.5-conjugated nanoparticles, 1 h
From the text: FIG. 2(A) G7-NH₂ PAMAM dendrimers were first conjugated with the near-infrared dye Cy5.5 using an N-hydroxysuccinimide ester linker sulfo-SMCC. Next, the fluorescently-tagged G7-NH₂ (G7-Cy5.5) was conjugated to human recombinant FLT3L (i.e., the soluble FLT3L form with 155 amino acids; ProSpec-Tany Technogene Ltd., East Brunswick, N.J.) at a 1:2 ratio using the heterofunctional linker sulfosuccinimidyl 4-((N-maleimidomethyl) cyclohexane-1-carboxylate) (sulfo-SMCC), resulting in the G7-FLT3L conjugates. FIG. 2(B) MONOMAC-6 cells were treated with Cy5.5-conjugated G7-FLT3L or G7-H2B nanoparticles for 24 hrs at the indicated doses. The proportion of Cy5.5⁺ cells were detected through flow cytometry analysis. FIG. 2(C) MONOMAC-6 and U937 cells were treated with 50 nM Cy5.5-conjugated G7-FLT3L or G7-H2B nanoparticles for 1 hr. The proportion of Cy5.5⁺ cells were detected through flow cytometry analysis. FIG. 2(D) MONOMAC-6 cells transfected with MSCV-PIG-miR-150 (miR-150-PIG) or MSCV-PIG (PIG) were treated with 50 nM Cy5.5-conjugated G7-FLT3L or G7-H2B nanoparticles for 1 hr. The proportion of Cy5.5⁺ cells were detected through flow cytometry analysis. Each experiment was repeated independently for at least three times. Average levels of at least three replicates are shown. […]

[4] = molecular target: T1, FLT3 on the surface of MONOMAC-6 cells …; assay: flow cytometry of Cy5.5+ MONOMAC-6 cells after 24 h treatment with Cy5.5-conjugated nanoparticles, compared with G7-FLT3L

Molecule: G7-H2B dendrimers (Cy5.5-labelled G7 PAMAM dendrimer conjugated to histone H2B, negative control)
- uptake ratio (proportion of Cy5.5+ cells) [1]: 5.9%

B1: G7-FLT3L dendrimers (Cy5.5-labelled G7 PAMAM dendrimer conjugated to human recombinant soluble FLT3L) (ligand, UniProt P49771 27-184, looked up)
chain: TQDCSFQHSPISSDFAVKIRELSDYLLQDYPVTVASNLQDEELCGGLWRLVLAQRWMERLKTVAGSKMQGLLERVNTEIHFVTKCAFQPPPSCLRFVQTNISRLLQETSEQLVALKPWITRQNFSRCLELQCQPDSSTLPPPWSPRPLEATAPTAPQP
modifications: conjugated through the sulfo-SMCC linker to a Cy5.5-labelled G7 PAMAM dendrimer (approximately 0.5-1 FLT3L molecules per dendrimer); attachment residue not stated
notes: extracellular domain; The protein is carried on a G7 PAMAM dendrimer labelled with Cy5.5; also called G7-FLT3L nanoparticles; G7-FLT3L conjugates
- fold specificity and efficiency in targeting and uptake against nanoparticles conjugated with control proteins [2]: 4 times
- uptake ratio (proportion of Cy5.5+ cells) [3]: 23.6%

B2: G7-Flt3L dendrimers (Cy5.5-labelled G7 PAMAM dendrimer conjugated to the synthetic 74-amino acid mouse Flt3L peptide) (peptide)
peptide: SSNFKVKFRELTDHLLKDYPVTVAVNLQDEKHCKALWSLFLAQRWIEQLKTVAGSKMQTLLEDVNTEIHFVTSC
modifications: conjugated to a Cy5.5-labelled G7 PAMAM dendrimer; attachment residue not stated
notes: also called G7-Flt3L nanoparticles; engineered mouse Flt3L peptide
- binding result [4]: binds
